Experimental data: patent US20250339558A1

Molecular target: CD20 (UniProt P11836)
Assay: cell-based or functional assay

Sequence of UniProt P11836 (P11836 whole entry): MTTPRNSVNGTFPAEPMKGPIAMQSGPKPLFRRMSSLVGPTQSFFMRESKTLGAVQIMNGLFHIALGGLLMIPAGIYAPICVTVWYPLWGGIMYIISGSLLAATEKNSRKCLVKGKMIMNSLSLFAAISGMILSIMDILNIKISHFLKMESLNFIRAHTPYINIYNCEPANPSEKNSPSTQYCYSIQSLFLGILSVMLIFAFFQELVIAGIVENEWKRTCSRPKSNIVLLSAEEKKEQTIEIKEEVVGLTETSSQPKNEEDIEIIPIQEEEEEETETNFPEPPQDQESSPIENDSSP

Rituximab (antibody)
CDC Depletion Efficiency (complement-dependent cytotoxicity killing): 60%
